The record followed here is patent publication US20250171562A1.

First the molecules themselves.
B1: NIgG4F6A1(G4S)1 (Fc fusion)
chain 1: DVQLQESGGGLVQAGGSLRLSCAASGLTFGSYDMGWYRQAPGKQRELVGRIRNDGITYYADSVKGRFTMSRDNAKNTVYLQMNSLKPEDTAVYYCAADGTGLGHYDYWGQGTQVTVSGGGGSGPPCPPCPAPEFLGGPSVFLFPPKPKDTLMISRTPEVTCVVVDVSQEDPEVQFNWYVDGVEVHNAKTKPREEQFNSTYRVVSVLTVLHQDWLNGKEYKCKVSNKGLPSSIEKTISKAKGQPREPQVYTLPPCQEEMTKNQVSLWCLVKGFYPSDIAVEWESNGQPENNYKTTPPVLDSDGSFFLYSRLTVDKSRWQEGNVFSCSVMHEALHNHYTQKSLSLSLGK
chain 2: EVQLLESGGGLVQPGGSLRLSCAASGFTFGNYDMAWVRQAPGKRPEWVSSIDTGGDITHYADSVKGRFTISRDNAKNTLYLQMNSLRPEDTAVYWCATDEEYALGPNEFDYYGQGTLVTVSSGGGGSGPPCPPCPAPEFLGGPSVFLFPPKPKDTLMISRTPEVTCVVVDVSQEDPEVQFNWYVDGVEVHNAKTKPREEQFNSTYRVVSVLTVLHQDWLNGKEYKCKVSNKGLPSSIEKTISKAKGQPREPQVCTLPPSQEEMTKNQVSLSCAVKGFYPSDIAVEWESNGQPENNYKTTPPVLDSDGSFFLVSRLTVDKSRWQEGNVFSCSVMHEALHNHYTQKSLSLSLGK
B2: NIgG4F6A1(G4S)3 (Fc fusion)
chain 1: DVQLQESGGGLVQAGGSLRLSCAASGLTFGSYDMGWYRQAPGKQRELVGRIRNDGITYYADSVKGRFTMSRDNAKNTVYLQMNSLKPEDTAVYYCAADGTGLGHYDYWGQGTQVTVSGGGGSGGGGSGGGGSGPPCPPCPAPEFLGGPSVFLFPPKPKDTLMISRTPEVTCVVVDVSQEDPEVQFNWYVDGVEVHNAKTKPREEQFNSTYRVVSVLTVLHQDWLNGKEYKCKVSNKGLPSSIEKTISKAKGQPREPQVYTLPPCQEEMTKNQVSLWCLVKGFYPSDIAVEWESNGQPENNYKTTPPVLDSDGSFFLYSRLTVDKSRWQEGNVFSCSVMHEALHNHYTQKSLSLSLGK
chain 2: EVQLLESGGGLVQPGGSLRLSCAASGFTFGNYDMAWVRQAPGKRPEWVSSIDTGGDITHYADSVKGRFTISRDNAKNTLYLQMNSLRPEDTAVYWCATDEEYALGPNEFDYYGQGTLVTVSSGGGGSGGGGSGGGGSGPPCPPCPAPEFLGGPSVFLFPPKPKDTLMISRTPEVTCVVVDVSQEDPEVQFNWYVDGVEVHNAKTKPREEQFNSTYRVVSVLTVLHQDWLNGKEYKCKVSNKGLPSSIEKTISKAKGQPREPQVCTLPPSQEEMTKNQVSLSCAVKGFYPSDIAVEWESNGQPENNYKTTPPVLDSDGSFFLVSRLTVDKSRWQEGNVFSCSVMHEALHNHYTQKSLSLSLGK
B3: CIgG4F5A1(G4S)3 (Fc fusion)
chain 1: GPPCPPCPAPEFLGGPSVFLFPPKPKDTLMISRTPEVTCVVVDVSQEDPEVQFNWYVDGVEVHNAKTKPREEQFNSTYRVVSVLTVLHQDWLNGKEYKCKVSNKGLPSSIEKTISKAKGQPREPQVYTLPPCQEEMTKNQVSLWCLVKGFYPSDIAVEWESNGQPENNYKTTPPVLDSDGSFFLYSRLTVDKSRWQEGNVFSCSVMHEALHNHYTQKSLSLSLGKGGGGSGGGGSGGGGSDVQLQESGGGLVQPGGSLRLSCAASGSIFSIDIMGWYRQAPGKQRELVATMPEGNYINYADSVKGRLTLSRDKGKNTVYLQLNSLKPEDTAVYYCYGFGVREGRGNVYWGQGTQVTVS
chain 2: GPPCPPCPAPEFLGGPSVFLFPPKPKDTLMISRTPEVTCVVVDVSQEDPEVQFNWYVDGVEVHNAKTKPREEQFNSTYRVVSVLTVLHQDWLNGKEYKCKVSNKGLPSSIEKTISKAKGQPREPQVCTLPPSQEEMTKNQVSLSCAVKGFYPSDIAVEWESNGQPENNYKTTPPVLDSDGSFFLVSRLTVDKSRWQEGNVFSCSVMHEALHNHYTQKSLSLSLGKGGGGSGGGGSGGGGSEVQLLESGGGLVQPGGSLRLSCAASGFTFGNYDMAWVRQAPGKRPEWVSSIDTGGDITHYADSVKGRFTISRDNAKNTLYLQMNSLRPEDTAVYWCATDEEYALGPNEFDYYGQGTLVTVSS
B4: NIgG4F6A1(RS) (Fc fusion)
chain 1: DVQLQESGGGLVQAGGSLRLSCAASGLTFGSYDMGWYRQAPGKQRELVGRIRNDGITYYADSVKGRFTMSRDNAKNTVYLQMNSLKPEDTAVYYCAADGTGLGHYDYWGQGTQVTVSRSGPPCPPCPAPEFLGGPSVFLFPPKPKDTLMISRTPEVTCVVVDVSQEDPEVQFNWYVDGVEVHNAKTKPREEQFNSTYRVVSVLTVLHQDWLNGKEYKCKVSNKGLPSSIEKTISKAKGQPREPQVYTLPPCQEEMTKNQVSLWCLVKGFYPSDIAVEWESNGQPENNYKTTPPVLDSDGSFFLYSRLTVDKSRWQEGNVFSCSVMHEALHNHYTQKSLSLSLGK
chain 2: EVQLLESGGGLVQPGGSLRLSCAASGFTFGNYDMAWVRQAPGKRPEWVSSIDTGGDITHYADSVKGRFTISRDNAKNTLYLQMNSLRPEDTAVYWCATDEEYALGPNEFDYYGQGTLVTVSSRSGPPCPPCPAPEFLGGPSVFLFPPKPKDTLMISRTPEVTCVVVDVSQEDPEVQFNWYVDGVEVHNAKTKPREEQFNSTYRVVSVLTVLHQDWLNGKEYKCKVSNKGLPSSIEKTISKAKGQPREPQVCTLPPSQEEMTKNQVSLSCAVKGFYPSDIAVEWESNGQPENNYKTTPPVLDSDGSFFLVSRLTVDKSRWQEGNVFSCSVMHEALHNHYTQKSLSLSLGK
B5: NIgG4F6A1(G4S)2 (Fc fusion)
chain 1: DVQLQESGGGLVQAGGSLRLSCAASGLTFGSYDMGWYRQAPGKQRELVGRIRNDGITYYADSVKGRFTMSRDNAKNTVYLQMNSLKPEDTAVYYCAADGTGLGHYDYWGQGTQVTVSGGGGSGGGGSGPPCPPCPAPEFLGGPSVFLFPPKPKDTLMISRTPEVTCVVVDVSQEDPEVQFNWYVDGVEVHNAKTKPREEQFNSTYRVVSVLTVLHQDWLNGKEYKCKVSNKGLPSSIEKTISKAKGQPREPQVYTLPPCQEEMTKNQVSLWCLVKGFYPSDIAVEWESNGQPENNYKTTPPVLDSDGSFFLYSRLTVDKSRWQEGNVFSCSVMHEALHNHYTQKSLSLSLGK
chain 2: EVQLLESGGGLVQPGGSLRLSCAASGFTFGNYDMAWVRQAPGKRPEWVSSIDTGGDITHYADSVKGRFTISRDNAKNTLYLQMNSLRPEDTAVYWCATDEEYALGPNEFDYYGQGTLVTVSSGGGGSGGGGSGPPCPPCPAPEFLGGPSVFLFPPKPKDTLMISRTPEVTCVVVDVSQEDPEVQFNWYVDGVEVHNAKTKPREEQFNSTYRVVSVLTVLHQDWLNGKEYKCKVSNKGLPSSIEKTISKAKGQPREPQVCTLPPSQEEMTKNQVSLSCAVKGFYPSDIAVEWESNGQPENNYKTTPPVLDSDGSFFLVSRLTVDKSRWQEGNVFSCSVMHEALHNHYTQKSLSLSLGK
B6: CIgG4F6A1(RS) (Fc fusion)
chain 1: GPPCPPCPAPEFLGGPSVFLFPPKPKDTLMISRTPEVTCVVVDVSQEDPEVQFNWYVDGVEVHNAKTKPREEQFNSTYRVVSVLTVLHQDWLNGKEYKCKVSNKGLPSSIEKTISKAKGQPREPQVYTLPPCQEEMTKNQVSLWCLVKGFYPSDIAVEWESNGQPENNYKTTPPVLDSDGSFFLYSRLTVDKSRWQEGNVFSCSVMHEALHNHYTQKSLSLSLGKRSDVQLQESGGGLVQAGGSLRLSCAASGLTFGSYDMGWYRQAPGKQRELVGRIRNDGITYYADSVKGRFTMSRDNAKNTVYLQMNSLKPEDTAVYYCAADGTGLGHYDYWGQGTQVTVS
chain 2: GPPCPPCPAPEFLGGPSVFLFPPKPKDTLMISRTPEVTCVVVDVSQEDPEVQFNWYVDGVEVHNAKTKPREEQFNSTYRVVSVLTVLHQDWLNGKEYKCKVSNKGLPSSIEKTISKAKGQPREPQVCTLPPSQEEMTKNQVSLSCAVKGFYPSDIAVEWESNGQPENNYKTTPPVLDSDGSFFLVSRLTVDKSRWQEGNVFSCSVMHEALHNHYTQKSLSLSLGKRSEVQLLESGGGLVQPGGSLRLSCAASGFTFGNYDMAWVRQAPGKRPEWVSSIDTGGDITHYADSVKGRFTISRDNAKNTLYLQMNSLRPEDTAVYWCATDEEYALGPNEFDYYGQGTLVTVSS

Chain of mixture of three Der p 2 specific recombinant human IgE clones H10, H12, P4E (human) (P01854 other isoform, or with tags, fused parts or gaps): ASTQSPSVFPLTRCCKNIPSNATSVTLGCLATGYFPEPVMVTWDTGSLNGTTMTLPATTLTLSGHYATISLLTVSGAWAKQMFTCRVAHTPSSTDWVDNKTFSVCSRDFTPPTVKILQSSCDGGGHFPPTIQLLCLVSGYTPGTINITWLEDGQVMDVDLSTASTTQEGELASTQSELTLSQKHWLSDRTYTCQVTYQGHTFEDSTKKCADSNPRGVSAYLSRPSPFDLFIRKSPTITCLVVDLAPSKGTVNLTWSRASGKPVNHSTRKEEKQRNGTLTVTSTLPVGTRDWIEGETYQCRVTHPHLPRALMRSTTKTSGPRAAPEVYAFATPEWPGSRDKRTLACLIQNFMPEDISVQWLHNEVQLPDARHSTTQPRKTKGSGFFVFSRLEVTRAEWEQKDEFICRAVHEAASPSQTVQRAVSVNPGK

The experiment has as its target mixture of three Der p 2 specific recombinant human IgE clones H10, H12, P4E (human) (UniProt P01854). Kind of experiment: RBL-SX38 IgE displacement, FACS.
With B1, the EC50 was determined as 2.2 nM and the Max effect/effect 1 µM is 68%.

Consider B2, for which the EC50 amounted to 2.7 nM and the Max effect/effect 1 µM turned out to be 87%.

Turning to B3, the Max effect/effect 1 µM came to 27%. As to B4, the EC50 is 3.2 nM and the Max effect/effect 1 µM came out at 26%. In the case of B5, the EC50 turned out to be 2.3 nM and the Max effect/effect 1 µM stood at 76%.

For the molecule B6, the Max effect/effect 1 µM was found to be 96%.
